Reference: the supplement of paper PMC7877785
± gives the uncertainty stated by the source.

Experiment: self-splicing fitness, log relative to wild type (ln ratio); higher = more splicing; Tetrahymena group I intron in knt gene, E. coli kanamycin selection, DiMSum; sequences stand for … in CUCUCU…GGAGGGAAAAGUUAUCAGGCAUGCACCUGGUAGCUAGUCUUUAAACCAAUAGAUUGCAUCGGUUUAAAAGGCAAGACCGUCAAAUUGCGGGAAAGGGGUCAACAGCCGUUCAGUACCAAGUCUCAGGGGAAACUUUGAGAUGGCCUUGCAAAGGGUAUGGUAAUAAGCUGACGGACAUGGUCCUAACCACGCAGCCAAGUCCUAAGUCAACAGAUCUUCUGUUGAUAUGGAUGCAGUUCACAGACUAAAUGUCGGUCGGGGAAGAUGUAUUCUUCUCAUAAGAUAUAGUCGGACCUCUCCUUAAUGGGAGCUAGCGGAUGAAGUGAUGCAACACUGGAGCCGCUGGGAACUAAUUUGUAUGCGAAAGUAUAUUGAUUAGUUUUGGAGUACUCGUGGUCG
How it was run: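 Pooled colonies went to amplicon sequencing on an Illumina HiSeq 2500 after six replicate transformations. The plates were LB agar with 100 μg/mL carbenicillin, 50 μM IPTG and 0.2% rhamnose, with or without 25 μg/mL kanamycin, incubated overnight at 37°C or 30°C. The E. coli BL21(DE3) library had all eight P1ex-region intron nucleotides randomised, the intron placed in the knt kanamycin-resistance gene on pET-22b(+). DiMSum fitness is the error-weighted combination of replicate fold changes, kanamycin against none, normalised to wild type.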

Sequence | self-splicing fitness (ln) (30 °C) | self-splicing fitness (ln) (37 °C)
AAUCAGCAAUAUUACGUCCG | -1.59 ± 0.085 | -0.00732 ± 0.11
GACCAGCAAUAUUACGCGUG | -0.273 ± 0.041 | 0.216 ± 0.059
GUGUAGCAAUAUUACGCUGC | -3.26 ± 0.27 | -1.08 ± 0.23
UCUGAGCAAUAUUACGCGGG | -3.91 ± 0.26 | -2.29 ± 0.2
CUGAAGCAAUAUUACGAGAC | -0.346 ± 0.11 | 0.35 ± 0.15
AACGAGCAAUAUUACGAACG | -3.03 ± 0.45 | -1.37 ± 0.28
CCGUAGCAAUAUUACGCCCA | – | -2.54 ± 0.48
CUCCAGCAAUAUUACGAAAU | -2.83 ± 0.19 | -1.75 ± 0.31
CCAAAGCAAUAUUACGUAGU | -3.67 ± 0.15 | -3.14 ± 0.14
CACUAGCAAUAUUACGUAGA | -3.01 ± 0.089 | -1.81 ± 0.096
UCAAAGCAAUAUUACGGCAC | -3.33 ± 0.38 | -1.68 ± 0.35
AUCCAGCAAUAUUACGUCCA | -1.22 ± 0.11 | -0.412 ± 0.12
ACAUAGCAAUAUUACGUGCC | -2.1 ± 0.15 | -0.986 ± 0.19
GUUCAGCAAUAUUACGGCCC | -0.59 ± 0.19 | 0.24 ± 0.24
AUAUAGCAAUAUUACGCUCC | -0.958 ± 0.25 | -0.476 ± 0.32
AUGUAGCAAUAUUACGCCAA | -0.877 ± 0.19 | -1.5 ± 0.19
CCCGAGCAAUAUUACGCUUC | -3.7 ± 0.47 | -2.32 ± 0.29
CGCUAGCAAUAUUACGCUGA | -2.69 ± 0.2 | -2.26 ± 0.22
GCAUAGCAAUAUUACGUAGC | -4.39 ± 0.26 | -2.15 ± 0.16
GUCGAGCAAUAUUACGUCGA | -3.97 ± 0.42 | -2.65 ± 0.44
GCUAAGCAAUAUUACGAGAC | -2.13 ± 0.13 | -0.763 ± 0.14
CCGUAGCAAUAUUACGCAGG | – | -2.75 ± 0.48
GCACAGCAAUAUUACGGGGU | -2.83 ± 0.13 | -1.35 ± 0.11
UUUGAGCAAUAUUACGGUCG | -3.78 ± 0.21 | -1.73 ± 0.19

Sequence | self-splicing fitness (ln) (30 °C) | self-splicing fitness (ln) (37 °C)
UAACAGCAAUAUUACGCUAG | -1.81 ± 0.071 | -0.992 ± 0.08
CGAAAGCAAUAUUACGGCUG | 0.127 ± 0.11 | 0.181 ± 0.13
GGUUAGCAAUAUUACGAUGC | -0.237 ± 0.13 | -0.251 ± 0.16
CAGUAGCAAUAUUACGGCGA | -2.45 ± 0.26 | -1.9 ± 0.29
UCACAGCAAUAUUACGCUUA | -1.66 ± 0.15 | -0.902 ± 0.12
CUAGAGCAAUAUUACGUAGC | – | -1.49 ± 0.27
CUUAAGCAAUAUUACGGGAA | -2.9 ± 0.3 | -2.85 ± 0.32
GACAAGCAAUAUUACGCUUA | -1.52 ± 0.098 | -0.863 ± 0.1
GUUUAGCAAUAUUACGAUGC | -0.832 ± 0.089 | 0.32 ± 0.12
UGACAGCAAUAUUACGGCUC | -1.37 ± 0.16 | -0.546 ± 0.17
AUUUAGCAAUAUUACGUCUU | -0.374 ± 0.12 | 0.156 ± 0.17
AGUAAGCAAUAUUACGAUAC | -3.12 ± 0.28 | -2.48 ± 0.38
AAUGAGCAAUAUUACGGAGC | -3.43 ± 0.25 | -1.03 ± 0.44
UUUAAGCAAUAUUACGGUGC | -3.88 ± 0.46 | -2.01 ± 0.47
AAAGAGCAAUAUUACGAGAG | -3.36 ± 0.19 | -3.42 ± 0.21
UAAUAGCAAUAUUACGGUUU | -2.92 ± 0.19 | -1.39 ± 0.18
AAGUAGCAAUAUUACGCCCC | -1.1 ± 0.19 | -1.22 ± 0.22
CCCUAGCAAUAUUACGCCUU | -3.23 ± 0.16 | -3.08 ± 0.4
UUAGAGCAAUAUUACGCUGU | -3.47 ± 0.36 | -1.56 ± 0.21
GCACAGCAAUAUUACGUAGU | -0.976 ± 0.057 | -0.516 ± 0.072
CCAUAGCAAUAUUACGGCCC | -1.72 ± 0.22 | –
UCGUAGCAAUAUUACGUCUC | -2.93 ± 0.19 | -2.29 ± 0.22
AAUUAGCAAUAUUACGGAAU | -2.33 ± 0.27 | -0.461 ± 0.18
CAUGAGCAAUAUUACGUUCA | -3.67 ± 0.26 | -2.29 ± 0.17
